Data taken from patent US20050227220A1, “Compositions and Methods for Evaluating and Designing Nuclear Receptor Ligands that Modulate Co-Regulator Affinity” (priority 2002, published 2005).
No end group written: not given here. *: point of attachment. Biotin = O=C1N[C@H]2[C@H](CS[C@H]2CCCCC(=O)*)N1

What was measured:
PPARδ LBD / RXRα LBD = biological target: T1, PPARδ LBD / RXRα LBD (Homo sapiens, UniProt Q03181); assay: FRET assay: ligand effect on RXRα LBD binding to PPAR LBD; details: 10 nM PPAR LBD, 4 concentrations of RXR
T1 sequence (Q03181 139-441): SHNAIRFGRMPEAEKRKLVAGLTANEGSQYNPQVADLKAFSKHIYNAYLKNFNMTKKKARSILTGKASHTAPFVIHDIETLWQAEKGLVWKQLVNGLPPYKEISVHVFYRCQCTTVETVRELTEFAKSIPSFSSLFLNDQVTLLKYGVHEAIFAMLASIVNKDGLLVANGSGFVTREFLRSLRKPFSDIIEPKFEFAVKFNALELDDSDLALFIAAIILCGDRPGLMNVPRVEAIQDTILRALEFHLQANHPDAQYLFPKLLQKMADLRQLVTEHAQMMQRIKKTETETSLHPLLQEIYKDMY
T1 sequence (P19793 225-462 partner limits assumed): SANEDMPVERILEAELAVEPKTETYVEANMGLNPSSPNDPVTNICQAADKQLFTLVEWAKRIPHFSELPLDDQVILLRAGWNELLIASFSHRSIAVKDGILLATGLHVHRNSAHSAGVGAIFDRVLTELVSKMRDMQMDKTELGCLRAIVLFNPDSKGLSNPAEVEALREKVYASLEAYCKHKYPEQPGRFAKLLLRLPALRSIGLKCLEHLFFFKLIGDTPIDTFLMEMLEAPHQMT

full length human PPARδ = biological target: T2, full length human PPARδ (Homo sapiens, UniProt Q03181); assay: Mammalian two-hybrid assay (CV-1 cells); type: cell-based; details: VP16-PPARδ, GAL4-NCoR (2239-2300), result in words
T2 construct: expressed in transfected cells; host or cells: CV-1 cells, vector pVP16 (Clonetech)
T2 sequence (Q03181 whole entry, the tested form may be a part): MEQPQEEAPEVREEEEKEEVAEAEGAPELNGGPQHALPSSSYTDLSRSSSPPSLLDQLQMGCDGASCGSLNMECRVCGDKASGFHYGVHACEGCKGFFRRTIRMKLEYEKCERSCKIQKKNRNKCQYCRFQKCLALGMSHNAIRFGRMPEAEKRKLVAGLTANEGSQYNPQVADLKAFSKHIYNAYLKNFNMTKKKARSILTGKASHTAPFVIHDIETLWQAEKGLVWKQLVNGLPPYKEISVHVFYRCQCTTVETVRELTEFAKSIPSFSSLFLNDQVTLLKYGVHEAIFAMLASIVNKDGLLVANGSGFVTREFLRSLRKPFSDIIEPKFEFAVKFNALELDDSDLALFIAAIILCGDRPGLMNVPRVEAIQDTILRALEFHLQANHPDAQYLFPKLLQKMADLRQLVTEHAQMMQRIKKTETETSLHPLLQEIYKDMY
Excerpt: (§1) Mammalian two-hybrid assays were used to examine the ability of the tyrosine-based class of PPAR ligands to promote association or dissociation of the co-activator CBP and the corepressor NCoR in the context of a cellular environment. The assays for the three PPAR subtypes used full length human PPARα, PPARγ2 or PPARδ fused to the activation domain of VP16 and previously identified interaction domains of CBP and NCoR fused to the DNA binding domain of GAL4.
(§2) Expression plasmids for the VP16-human PPAR constructs were prepared by inserting amplified cDNAs encoding full length PPARα, PPARγ2 and PPARδ fused to amino acids 410-490 of the VP16 viral activation domain, into the expression vector pVP16 (Clonetech). […] The reporter plasmid was (UAS)5-tk-SPAP, and the internal control plasmid for all transfections was β-galactosidase expression vector (pCH110, Amersham).
(§3) CV-1 cells were maintained in culture in DME high glucose medium supplemented with 10% FBS and 2 mM glutamine in a humidified incubator (5% CO2 in air) at 37° C. Cells were harvested 72 hours prior to experimental use and placed in phenol red free D-MEM/F-12 medium with 15 mM HEPES supplemented with 10% charcoal/dextran-treated FBS (HyClone, Logan, Utah). The cells were harvested and seeded at 2.0×10^4 cell per well in a 96-well plate the day prior to transfection. Cells were transfected for 16 hr using Lipofectamine (Life Technologies, Inc., Rockville, Md.) essentially according to the manufacturer's instructions. The total amount of DNA transfected into each well was 80 ng. Transfection mixtures contained 8 ng VP16-PPAR plasmid, 8 ng SPAP reporter, 25 ng of pCH110(β-galactosidase) control plasmid, 35 ng of pBluescript II KS+ (Clonetech) and 4 ng of either coactivator or corepressor plasmid. Transfection quantities for full length PPAR and cofactor plasmids were optimized to generate a signal that was half of the maximal activation. These conditions would allow for dissociation or association to be experimentally determined for each ligand evaluated. Stock solutions of drugs were prepated in DMSO and dilutions were made in phenol red-free D-MEM/F-12 with 15 mM HEPES supplemented with 10% charcoal stripped, delipidated, heat inactivated (62° C. for 35 min) bovine calf serum (Sigma, St. Louis, Mo.) such that the final concentration of DMSO was 0.1%. Transfection mixtures were aspirated and 100 μl, of medium containing drug was added to each well.

full length human PPARα = biological target: T3, full length human PPARα (Homo sapiens, UniProt Q07869); assay: Mammalian two-hybrid assay (CV-1 cells); type: cell-based; details: VP16-PPARα, GAL4-NCoR (2239-2300), result in words
T3 construct: expressed in transfected cells; host or cells: CV-1 cells, vector pVP16 (Clonetech)
T3 sequence (Q07869 1-468): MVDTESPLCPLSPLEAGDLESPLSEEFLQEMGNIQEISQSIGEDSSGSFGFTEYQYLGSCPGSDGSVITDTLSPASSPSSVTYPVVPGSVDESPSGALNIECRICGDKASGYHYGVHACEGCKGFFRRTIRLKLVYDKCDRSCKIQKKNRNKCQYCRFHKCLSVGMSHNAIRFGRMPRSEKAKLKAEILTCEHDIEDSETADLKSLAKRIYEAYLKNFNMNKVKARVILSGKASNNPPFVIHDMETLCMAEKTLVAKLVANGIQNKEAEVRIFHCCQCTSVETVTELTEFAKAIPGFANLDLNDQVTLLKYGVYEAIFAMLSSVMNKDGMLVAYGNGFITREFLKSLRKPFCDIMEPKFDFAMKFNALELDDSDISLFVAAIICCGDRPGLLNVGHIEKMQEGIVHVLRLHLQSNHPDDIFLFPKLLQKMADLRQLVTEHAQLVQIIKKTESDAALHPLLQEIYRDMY
Excerpt: as §1, §2, §3

PPARα LBD = biological target: T4, PPARα LBD (Homo sapiens, UniProt Q07869); assay: FRET assay: ligand effect on CBP fragment / NCoR ID-C binding to PPAR LBD; type: biochemical; details: 10 nM PPAR LBD, CBP (57-454)
T4 construct: made in house; host or cells: bacterial BL21-DE3, vector pRSETA
T4 sequence (Q07869 192-468): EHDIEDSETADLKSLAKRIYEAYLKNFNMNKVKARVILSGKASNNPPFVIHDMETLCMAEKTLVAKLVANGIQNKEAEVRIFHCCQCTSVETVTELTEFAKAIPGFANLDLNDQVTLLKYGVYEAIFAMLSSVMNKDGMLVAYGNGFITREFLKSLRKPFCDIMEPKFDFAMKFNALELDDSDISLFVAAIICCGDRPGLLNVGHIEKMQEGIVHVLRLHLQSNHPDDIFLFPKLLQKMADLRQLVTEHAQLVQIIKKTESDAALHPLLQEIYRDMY
Excerpt: (§4) The experimentally determined α value is the ratio of cofactor affinities in the presence and absence of a saturating concentration of ligand. This analysis permits a direct comparison of the effects of compounds, independent of cofactor concentration and differences in coregulator affinity for the individual receptors. […] 98(9): p.
(§5) The effects of the coregulator environment on the apparent affinities and selectivities of various ligands were than examined. Experimentally determined pKs and the α values derived from the FRET assay were used to calculate the apparent affinity of the ligand for the receptor/cofactor complex (i.e. K/α).
(§6) FIG. 5 illustrates the effect of ligands on coactivator and corepressor binding to PPAR subtypes determined by FRET.

PPARδ LBD [1] = biological target: T5, PPARδ LBD (Homo sapiens, UniProt Q03181); assay: as above; type: biochemical
T5 construct: made in house; host or cells: bacterial BL21-DE3, vector pRSETA
T5 sequence (Q03181 139-441): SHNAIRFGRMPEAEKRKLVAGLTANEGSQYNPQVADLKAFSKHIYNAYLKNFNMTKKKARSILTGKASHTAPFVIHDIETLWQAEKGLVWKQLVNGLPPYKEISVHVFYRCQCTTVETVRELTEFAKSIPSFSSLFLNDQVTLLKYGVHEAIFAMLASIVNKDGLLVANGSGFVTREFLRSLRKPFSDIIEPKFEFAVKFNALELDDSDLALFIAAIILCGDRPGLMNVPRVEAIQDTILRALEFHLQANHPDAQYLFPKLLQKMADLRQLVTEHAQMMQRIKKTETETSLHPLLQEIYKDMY
Excerpt: as §4, §5, §6

PPARδ LBD [2] = biological target: T5, PPARδ LBD; assay: Fluorescence polarization assay for ligand modulation of nuclear receptor/cofactor peptide affinities; type: biochemical; details: result in words
Protocol: Such tests were performed quantitatively by measuring the effect of an excess of ligand on the binding affinity of the co-repressor peptide.
All experiments were conducted with buffer containing 10 mM HEPES, pH 7.4, containing 0.15 M NaCl, 3 mM EDTA, 0.005% polysorbate-20 and 5 mM DTT. Varied concentrations of receptor were incubated at room temperature with 10 nM of fluorescein-labeled NCOR ID-C or SMRT ID-C peptides. […] Binding isotherms were constructed and apparent KD values were determined by non-linear least squares fit of the data to an equation for a simple 1:1 interaction. […] Complex formation was monitored by fluorescence polarization as described in methods. […] All assays were performed in duplicate and affinities are the average of at least two independent experiments.

[3] = biological target: T6, human PPARδ ligand binding domain (amino acids 139-441) (human, UniProt Q03181 139-441, Biotinylated (site not stated) in the FRET assays; unlabelled in fluorescence polarization and SPR.); assay: fluorescence polarization, apparent affinity, with GW1929
T6 construct: placed at the N-terminus here; Biotinylated for FRET; also called PPARδ LBD
T6 sequence: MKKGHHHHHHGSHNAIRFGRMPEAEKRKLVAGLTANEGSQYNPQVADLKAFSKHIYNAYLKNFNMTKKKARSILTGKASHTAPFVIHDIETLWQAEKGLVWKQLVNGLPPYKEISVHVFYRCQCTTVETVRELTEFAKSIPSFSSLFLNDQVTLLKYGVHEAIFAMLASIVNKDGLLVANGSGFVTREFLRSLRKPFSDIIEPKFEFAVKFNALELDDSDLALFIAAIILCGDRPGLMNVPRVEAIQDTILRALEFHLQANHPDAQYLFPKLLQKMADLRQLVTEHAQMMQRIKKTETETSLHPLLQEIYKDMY

[4] = biological target: T7, human PPARγ ligand binding domain (amino acids 206-477) (human, UniProt P37231-2 206-477); assay: as above
T7 construct: range 206-477; placed at the N-terminus here; Biotinylated for FRET; also called PPARγ LBD
T7 sequence: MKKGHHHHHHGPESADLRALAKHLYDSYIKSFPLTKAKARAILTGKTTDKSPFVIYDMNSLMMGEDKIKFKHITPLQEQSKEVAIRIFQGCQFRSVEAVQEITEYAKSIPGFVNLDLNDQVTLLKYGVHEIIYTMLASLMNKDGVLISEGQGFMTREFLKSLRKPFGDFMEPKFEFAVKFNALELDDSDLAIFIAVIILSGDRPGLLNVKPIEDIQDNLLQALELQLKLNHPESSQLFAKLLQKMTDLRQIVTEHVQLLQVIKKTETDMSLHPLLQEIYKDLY

[5] = biological target: T6, human PPARδ ligand binding domain …; assay: fluorescence polarization, apparent affinity, with rosiglitazone
[6] = biological target: T7, human PPARγ ligand binding domain …; assay: as above
[7] = biological target: T6, human PPARδ ligand binding domain …; assay: fluorescence polarization, apparent affinity, no ligand
[8] = biological target: T7, human PPARγ ligand binding domain …; assay: as above
[9] = biological target: T8, VP16-human PPARα (full length) (human, UniProt P06492 410-490; Q07869 1-468); assay: mammalian two-hybrid in CV-1 cells
T8 construct: also called VP16 full length PPARα

[10] = biological target: T9, VP16-human PPARγ2 (full length) (human, UniProt P06492 410-490; P37231 1-505); assay: mammalian two-hybrid in CV-1 cells
T9 construct: also called VP16 full length PPARγ

[11] = biological target: T10, VP16-human PPARδ (full length) (human, UniProt P06492 410-490; Q03181 1-441); assay: mammalian two-hybrid in CV-1 cells
T10 construct: also called VP16 full length PPARδ

CN(CCOc1ccc(C[C@H](Nc2ccccc2C(=O)c2ccccc2)C(=O)O)cc1)c1ccccn1 [GW1929] was tested. Which “promotion of association of PPARδ with RXR” value (PPARδ LBD / RXRα LBD) did it give?
The value was “most effective”.

And the “effect on PPARδ interaction with NCoR” value (full length human PPARδ)?
The value was “slightly promote association”.

And the “effect on PPARα interaction with NCoR” value (full length human PPARα)?
The value was “neither GW1929 nor GW7845 were able to promote association with NCoR”.

What about the “effect on apparent affinity of PPARα for the co-activator fragment from CBP” value (PPARα LBD) of the same molecule?
Its value is “increased the apparent affinity”.

And the “effect on apparent affinity of PPARδ for the co-activator fragment from CBP” value (PPARδ LBD [1]; 10 nM PPAR LBD, CBP (57-454))?
Its value is “increased the apparent affinity”.

What about the “effect on affinity of PPARδ for the co-repressor peptide” value (PPARδ LBD [1]; 10 nM PPAR LBD, NCoR ID-C) of the same molecule?
The value was “greatest effect”.

What about the “log α (NCoR association with PPARδ)” value (PPARδ LBD [1]; α = ratio of cofactor affinities in presence and absence of saturating ligand) of the same molecule?
Its value is 0.52.

And the “effect on PPARδ interaction with the coactivator peptide (TRAP220)” value (PPARδ LBD [2])?
The value was “little or no effect”.

For Biotin-GHGEDFSKVSQNPILTSLLQITGNG (not fully specified; printed as biotin-GHGEDFSKVSQNPILTSLLQITGNG, also called TRAP220 575-599) [TRAP220 peptide (amino acids 575-599)], which Kd [3] is on record?
Its Kd is 3.4 µM.

What about the Kd [4] of the same molecule?
Its Kd is 0.79 µM.

And the Kd [5]?
The Kd was 1.8 µM.

And the Kd [6]?
Its Kd is 1.5 µM.

What about the Kd [7] of the same molecule?
Its Kd is 2.3 µM.

And the Kd [8]?
The Kd was 3.9 µM.

B1: GAL4-NcoR (2012-2103) (other)
chain: MKLLSSIEQACDICRLKKLKCSKEKPKCAKCLKNNWECRYSPKTKRSPLTRAHLTEVESRLERLEQLFLLIFPREDLDMILKMDSLQDIKALLTGLFVQDNVNKDAVTDRLASVETDMPLTLRQHRISATSSSEESSNKGQRQLTVSGPLHHYRPQQESPSPQQQLPPSSQAEGMGQVPRTHRLITLADHICQIITQDFARNQVSSQTPQQPPTSTFQNSPSALVSTPVRTKTSNRYSP
notes: range 1-147;range 2012-2103; also called NCoR fragment (2012-2103) that contained NCoR ID-N
Does B1 bind [9]?
Result: no binding

Does B1 bind [10]?
Result: no binding

Does B1 bind [11]?
Result: no binding
